# Laboratory results from article PMC8612531 (Science Advances, 2021).
# Substitutions are numbered along the chain they refer to. Names may count otherwise.
# B1: XccBphP R525E-R527E full-length variant, apoprotein (natural protein)
# chain: STATNPLDLDVCAREPIHIPGLIQPYGVLLVIDPADGRIVQASTTAADLLGVPMAALLGMPYTQVLTLPEAQPFAVDDQPQHLMHAEVRFPQRATPPASAWVAAWHLYPQQWLVEMEPRDARLLDVTLREAMPLLRSVERDPGIAEAAVRVAKGLRSLIGFDRVMIYRFDEEWNGDIIAEARKPELEAYLGLHYPASDIPAQARALYLRNRVRQIADVGYQPSPIQPTVHPQLGTPVDLSDVSLRSVSPVHLEYLANMGVTATLVASIVVNDALWGLISCHHYSPHFTNHAMRDVTDAVARTLAGRIGALQAVARARLESVLLTVREKLITDFNDAEHMTVELLDDMAPDLMDVVDADGVAIFHGNDISRHGTTPDVAALRRIRDHIESEHHEALREDAVGALHVDAIGEVFPELADLAPLAAGFIFVPLMPQSRSALLWTRREQIQQIKWAGNPQLAKLEDIPNSRLSPRKSFDLWQQTVRGRARRWSPLHLESARSLRVLIELMERKRFQQDFTLLEASLSELEDGVAIIERGTANAAHRLLFVNTAFADVCGSDVAELIGRELQTLYASDAPRANVELLQDALRNGRAAYVTLPLQVSDGAPVYRQFHLEPLPSPSGVTAHWLLQLRDPE
# B2: XccBphP wild-type full-length bacteriophytochrome, apoprotein (natural protein)
# chain: B1 chain with E524R, E526R
# B3: XccBphP G454E full-length variant, holoprotein (biliverdin-bound) (natural protein)
# chain: B1 chain with G453E, E524R, E526R
# modifications: biliverdin IXα (BV) covalently bound to Cys13 (thioether linkage)
# B4: XccBphP G454A variant, holoprotein (biliverdin-bound) (natural protein)
# chain: B1 chain with G453A, E524R, E526R
# modifications: biliverdin IXα (BV) covalently bound to Cys13 (thioether linkage)
# B5: XccBphP W452A-G454E variant, apoprotein (natural protein)
# chain: B1 chain with W451A, G453E, E524R, E526R
# B6: XccBphP A453E variant, apoprotein (natural protein)
# chain: B1 chain with A452E, E524R, E526R
# B7: XccBphP G454E full-length variant, apoprotein (natural protein)
# chain: B1 chain with G453E, E524R, E526R
# B8: XccBphP G454A variant, apoprotein (natural protein)
# chain: B1 chain with G453A, E524R, E526R
# B9: XccBphP W478A variant, apoprotein (natural protein)
# chain: B1 chain with W477A, E524R, E526R
# B10: XccBphP F512P variant, apoprotein (natural protein)
# chain: B1 chain with F511P, E524R, E526R
# What was measured:
# [1] = target: A0A0H2; assay: SEC-MALS
# [2] = target: the molecule itself; assay: SEC-MALS
# [3] = target: the molecule itself; assay: crystal structure
# [4] = target: the molecule itself; assay: SEC
Protein,stoichiometry N [2],other results
B1,2,percent monomer (main peak) [1]: Monomer (~85%); percent dimer (secondary peak) [2]: ~15%
B2,2,
B3,,binding result [3]: binds
B4,,binding result [4]: binds
B5,2,
B6,2,
B7,2,
B8,2,
B9,2,
B10,2,
